± gives the uncertainty stated by the source.
Test: protein stability index of a GFP-peptide fusion (yeast GPS) (PSI 1-4); higher = more stable; sorted into four equal gates, so the index is relative within each strain
Outline: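 Tiled 17-residue peptides from yeast proteins were fused downstream of GFP on a plasmid that also expresses Cherry, and the pooled library was carried in yeast. Mid-log cultures grown in leucine-free medium were sorted into four equal gates by GFP/Cherry fluorescence ratio. Plasmids from each gate were PCR-amplified and Illumina-sequenced, and reads were assigned to strains by barcodes. Each peptide's protein stability index is the sum, over gates, of the gate's read frequency multiplied by its gate number.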

Sequence	protein stability index (doa10∆)	protein stability index (pdr5∆)	protein stability index (san1∆)	protein stability index (ubr1∆)
NDLHHSEKKYAEEDQVQ [RPN3]	2.85 ± 0.1	3.3 ± 0.16	2.99 ± 0.13	2.98 ± 0.21
NDLVKARDLLDDLEKTL [RPN9]	2.97 ± 0.092	3.43 ± 0.097	3.12 ± 0.091	3.15 ± 0.087
NDPSAEVRRAAMLNLIN [YCG1]	–	3.42 ± 0.21	2.72 ± 0.26	–
NEKLECISLGSTKLSRP [ITC1]	2.25 ± 0.064	2.64 ± 0.052	2.44 ± 0.047	2.47 ± 0.057
NENEDEDEGTLNVAEII [ARP9]	3.37 ± 0.13	2.91 ± 0.14	3.34 ± 0.072	2.13 ± 0.12
NENKVIIELPNEKFEIE [SRB4]	2.89 ± 0.077	2.86 ± 0.081	2.94 ± 0.055	2.8 ± 0.042
NENNSNGGEDTSVENEG [REC8]	3.31 ± 0.14	3.44 ± 0.14	3.05 ± 0.15	3.07 ± 0.089
NFAHSDSLSVPKVSAGD [SIR4]	2.95 ± 0.11	2.98 ± 0.12	2.76 ± 0.054	3.27 ± 0.11
NFALTTLIDLVKHSPGA [ECM29]	1.61 ± 0.11	1.79 ± 0.071	1.49 ± 0.15	2.13 ± 0.062
NFEATKKSVLKQVQDFE [COR1]	2.76 ± 0.13	2.39 ± 0.25	3.07 ± 0.15	2.91 ± 0.072
NFETEWNLQTLAADDAF [RPB11]	2.68 ± 0.16	2.83 ± 0.13	–	2.54 ± 0.13
NFLIKLSELSPGIMLRQ [YCS4]	2.77 ± 0.093	2.98 ± 0.1	3.1 ± 0.094	2.95 ± 0.093
NFPEASKLSEHLNHYIL [YCG1]	2.53 ± 0.29	2.51 ± 0.11	2.66 ± 0.17	2.53 ± 0.09
NFRILKSFTNDKIPLNY [SRB5]	2.94 ± 0.054	2.77 ± 0.057	2.84 ± 0.04	2.91 ± 0.036
NFYRPLLRSVLVLLELV [YML103C/NUP188]	1.23 ± 0.066	1.21 ± 0.087	1.18 ± 0.12	1.06 ± 0.074
NGEIKGENIDADNDGPR [SNF2]	3.07 ± 0.074	3.48 ± 0.069	3.49 ± 0.063	3.08 ± 0.073
NGFHGRLGDLGVIDDSF [SMC4]	3.51 ± 0.17	3.35 ± 0.11	3.11 ± 0.12	3.46 ± 0.057
NGFMESAIVNEDGLLEG [SOH1]	–	–	2.86 ± 0.23	–
NGGSEEEITCALDYLIP [MED7]	3.45 ± 0.1	3.45 ± 0.13	3.44 ± 0.098	3.35 ± 0.09
NGIPLKSKERSSQFVRL [YMR129W/POM152]	2.75 ± 0.15	2.6 ± 0.14	3.22 ± 0.096	2.85 ± 0.075
NGKVQYFLRRQYILQIV [YJL039C/NUP192]	1.42 ± 0.054	1.56 ± 0.07	1.33 ± 0.18	1.45 ± 0.053
NGLIISWSNGKITSPIR [RRP42]	3.12 ± 0.19	2.98 ± 0.14	3.2 ± 0.082	3.39 ± 0.12
NGNDESSEYETINISLS [NUT1]	3.16 ± 0.12	3.32 ± 0.2	3.06 ± 0.12	3.58 ± 0.25
NGTLIGCVSYSPAALKQ [YMR153W/NUP53]	1.85 ± 0.06	2.27 ± 0.086	1.83 ± 0.097	2.26 ± 0.045
NGVVKKAAAGAGSAALK [RPO31]	3.51 ± 0.13	3.11 ± 0.27	3.47 ± 0.12	–
NHDRINISNNLQKALTV [RPN8]	3.17 ± 0.064	3.29 ± 0.062	3.38 ± 0.038	3.27 ± 0.046
NHLDELQKKFVTKQSEL [SMC1]	2.59 ± 0.11	3.06 ± 0.14	2.35 ± 0.21	2.72 ± 0.075

Sequence	protein stability index (doa10∆)	protein stability index (pdr5∆)	protein stability index (san1∆)	protein stability index (ubr1∆)
NIAKDLKWKKGIRGKLV [SMC1]	1.37 ± 0.12	2.04 ± 0.14	2.23 ± 0.12	–
NIDETSDEVSRGIPRLS [SMC4]	3.06 ± 0.2	–	2.97 ± 0.22	–
NILWAIYNSASKASMQK [YCS4]	1.66 ± 0.13	2.11 ± 0.13	1.58 ± 0.22	2.18 ± 0.077
NINEVKKASDLVDTPSN [NUT1]	3.14 ± 0.083	2.97 ± 0.085	3.23 ± 0.065	3.27 ± 0.07
NIPKPLNSYHIKNGRIY [RGR1]	2.28 ± 0.04	2.18 ± 0.03	1.97 ± 0.047	2.14 ± 0.027
NIRSQLLSENRSEKSTT [SRP54]	3.04 ± 0.06	3 ± 0.1	3.01 ± 0.055	3.13 ± 0.038
NITDYETHPDNSNKQAV [BRR2]	2.81 ± 0.047	3 ± 0.045	2.73 ± 0.037	2.9 ± 0.034
NIVDSSAAGNKAIPTFS [YIL149C/MLP2]	2.31 ± 0.066	2.44 ± 0.077	3 ± 0.057	2.44 ± 0.059
NIWGTVRTNRFDIIEES [ECM29]	2.23 ± 0.23	3.35 ± 0.12	2.54 ± 0.11	2.98 ± 0.12
NIYNFSPSERIEPLEIN [BRR2]	2.39 ± 0.064	2.78 ± 0.051	1.93 ± 0.056	2.2 ± 0.05
NKHLTTLVEIFLERKCV [SSN3]	2.6 ± 0.17	2.73 ± 0.2	–	3.2 ± 0.17
NKIINWEISNPDFLSKY [NUT1]	2.06 ± 0.047	2.41 ± 0.045	2.11 ± 0.11	1.8 ± 0.05
NKIRNLELPLCPYCYKK [SIR2]	2.52 ± 0.055	1.95 ± 0.062	1.97 ± 0.069	1.98 ± 0.074
NKITNQGVTCLHLAVGK [NAS6]	1.4 ± 0.2	1.83 ± 0.057	–	2.01 ± 0.075
NKKSEENEMIKPMNKGQ [SWP82]	3.09 ± 0.18	3.41 ± 0.095	3.39 ± 0.067	3.39 ± 0.26
NKLGNDPSLNLKLLAKS [BRR2]	2.64 ± 0.062	2.56 ± 0.079	2.86 ± 0.07	2.55 ± 0.096
NKLGNKRLTEDERIEKE [CDC53]	2.38 ± 0.15	3.13 ± 0.095	2.31 ± 0.059	2.42 ± 0.11
NKLLRRKLMEMENILQR [YIL149C/MLP2]	3.41 ± 0.2	–	3.33 ± 0.11	–
NKLTILGRDYPIEVDEE [IRR1]	2.28 ± 0.1	2.56 ± 0.12	2.38 ± 0.11	2.64 ± 0.066
NKQIEILTDLVNYRHFK [ITC1]	2.93 ± 0.042	2.99 ± 0.036	3.03 ± 0.043	2.75 ± 0.036
NKSRSSGHFSTDSRTGQ [CDC53]	3.03 ± 0.054	3.05 ± 0.052	3.12 ± 0.041	3.14 ± 0.039
NKYANNDFANNLPKEGD [CSL4]	3.14 ± 0.067	3 ± 0.056	2.9 ± 0.065	2.4 ± 0.071
NKYPELLGKDNEDDALI [AAR2]	3.33 ± 0.1	3.19 ± 0.089	3.33 ± 0.051	3.02 ± 0.11
NLATWYHSAGGRDKHAL [SSN3]	3.49 ± 0.17	3.54 ± 0.15	3.16 ± 0.11	3.42 ± 0.08
NLEESSKLDIYTQQQAL [RET1]	2.9 ± 0.087	2.77 ± 0.078	2.47 ± 0.07	2.94 ± 0.079
NLEIPAYEFDGDKVIVG [RIP1]	2.71 ± 0.07	2.61 ± 0.093	2.65 ± 0.064	2.72 ± 0.077

— the supplement of paper PMC9732359
